According to US20170204445A1, “IN VIVO SITE-SPECIFIC PROTEIN TAGGING USING ENGINEERED SORTASE VARIANTS” (priority 2016, published 2017):

Tests used:
SrtA7M = biological target: T1, SrtA7M (Staphylococcus aureus, UniProt Q2FV99, D160N/D165A/E105K/E108Q/G167E/K190E/K196T/P94R); assay: In vitro conjugation of purified LPETGG-tagged proteins by SrtA7M (ESI-TOF LC-MS); format: biochemical; conditions: 10 μM SrtA7M, 100 mM Azp or propargylamine, 8 hours, 37° C.
T1 construct: […]; made in house; host or cells: E. coli
Protocol: FIG. 3. Transpeptidation of purified proteins. Purified proteins expressed with a C-terminal LPETGG sequence were incubated with 10 μM SrtA7M for 8 hours at 37° C. along with the desired amine. Proteins were then diluted 10-fold with 0.2% formic acid and analyzed by ESI-TOF LC-MS. (A) Maltose binding protein. (B) Sf9 nanobody, and (C) Fibronectin Fn10, all show 80-100% conversion to the desired conjugate.
FIG. 9. Sortase conjugation time course.
FIG. 10. In vitro conjugation of sfGFP derivatives. (A) His-sfGFP-srt and (B) sfGFPHis-srt were incubated with 10 μM SrtA7M and 100 mM Azp or propargylamine for 8 hours at 37° C.
We next determined the ability of SrtA7M to modify purified proteins. We incubated several proteins containing a C terminal LPETGG sequence (srt) with 10 μM enzyme and either 100 mM Azp or propargylamine, followed by quenching with formic acid. […] To define the effective range of reaction conditions, we tested the conjugation of MBP-srt with Azp at different time points and substrate concentrations.
In vitro conjugation of proteins. Purified MBP-srt, His-sfGFP-srt, Nanobody-His-srt, Glutathione-S-transferase-His-srt, Fibronectin-His-srt, and sfGFP-His-srt were labeled after purification in 100 mM ammonium bicarbonate buffer pH 7.8. […]

LPETGSW peptide = LPETGSW peptide (Staphylococcus aureus, UniProt Q2FV99, G167E); assay: Transpeptidation of LPETGSW peptide with wild-type SrtA; conditions: 15-fold more enzyme (150 μM), 20 hours, 37° C., 25 mM Tris.HCl pH 7.5, 10 mM CaCl2

B1: Fn10-His-srt: engineered fibronectin domain Fn10 with His tag and C terminal LPETGG, SEQ ID NO: 29 (protein, listed as Homo sapiens)
chain: MLVPRGSSDVPRDLEVVAATPTSLLISWDAPAVTVRYYRITYGETGGNSPVQEFTVPGSKSTATISGLKPGVDYTITVYAVTPRGDWNEGSKPISINYRTGKKGKGGHHHHHHLPETGG
modifications: His tag, LPETGG
conversion / modification of the protein with the amine (SrtA7M): complete conversion

B2: Wild-type SrtA: wild-type Staphylococcus aureus sortase A Δ59, SEQ ID NO: 26 (protein, listed as Homo sapiens)
chain: MQAKPQIPKDKSKVAGYIEIPDADIKEPVYPGPATPEQLNRGVSFAEENESLDDQNISIAGHTFIDRPNYQFTNLKAAKKGSMVYFKVGNETRKYKMTSIRDVKPTDVEVLDEQKGKDKQLTLITCDDYNEKTGVWEKRKIFVATEVKLEHHHHHH
conversion of LPETGSW peptide (LPETGSW peptide): modest conversion
